{"source": "patent US6036923", "key": {"[1]": {"tested_on": "T4 DNA polymerase (3'-5' exonuclease) (Bacteriophage T4?)", "experiment": "cleavage_in_vitro", "conditions": "atmospheric pressure, room temperature"}, "Lambda exonuclease": {"tested_on": "Lambda exonuclease", "experiment": "cleavage_in_vitro", "conditions": "rate at 30,000 psi, 20 C; 89 mM glycine-KOH pH 9.4, 3.3 mM MgCl2 assay buffer; reversible pressure inhibition"}}}
{"substance": "DNA size markers (lambda DNA)", "values": [{"measurement": "activity (bp digested in 20 min)", "setting": "[1]", "value": 100}]}
{"substance": "Lambda DNA HindIII digest fragments", "values": [{"measurement": "activity", "setting": "Lambda exonuclease", "value": 0.1, "unit": "bases/s"}]}
